Test results reported in PMC6378967, “Structural basis for the specificity of renin-mediated angiotensinogen cleavage” (The Journal of Biological Chemistry, 2018).

T1: biotinylated renin D226A mutant (human, biotin (NHS-PEG4-Biotin), preferentially on N-terminal alpha-amino groups)
T1 construct: human renin D226A, as m1; source: HEK293EBNA cells, purified; biotinylated with EZ-link-NHS-PEG4-Biotin at pH 6.2
T1 sequence (P00797 67-406 with D226A, looked up): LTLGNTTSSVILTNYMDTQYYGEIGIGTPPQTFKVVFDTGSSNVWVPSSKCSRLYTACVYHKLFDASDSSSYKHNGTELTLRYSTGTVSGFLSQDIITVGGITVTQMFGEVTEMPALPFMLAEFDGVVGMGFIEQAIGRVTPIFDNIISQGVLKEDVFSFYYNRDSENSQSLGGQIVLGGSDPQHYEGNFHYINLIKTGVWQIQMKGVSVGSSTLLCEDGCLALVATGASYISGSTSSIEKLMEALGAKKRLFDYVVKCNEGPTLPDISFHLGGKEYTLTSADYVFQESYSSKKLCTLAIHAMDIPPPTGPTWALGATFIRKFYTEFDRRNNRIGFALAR

B1: spent AGT (human AGT without the N-terminal 10-residue angiotensin I peptide) (domain or fragment)
chain: VIHNESTCEQLAKANAGKPKDPTFIPAPIQAKTSPVDEKALQDQLVLVAAKLDTEDKLRAAMVGMLANFLGFRIYGMHSELWGVVHGATVLSPTAVFGTLASLYLGALDHTADRLQAILGVPWKDKNCTSRLDAHKVLSALQAVQGLLVAQGRADSQAQLLLSTVVGVFTAPGLHLKQPFVQGLALYTPVVLPRSLDFTELDVAAEKIDRFMQAVTGWKTGCSLMGASVDSTLAFNTYVHFQGKMKGFSLLAEPQEFWVDNSTSVSVPMLSGMGTFQHWSDIQDNFSVTQVPFTESACLLLIQPHYASDLDKVEGLTFQQNSLNWMKKLSPRTIHLTMPQLVLQGSYDLQDLLAQAELPAILHTELNLQKLSNDRIRVGEVLNSIFFELEADEREPTESTQQLNKPEVLEVTLNRPFLFAVYDQSATALHFLGRVANPLSTA
modifications: glycosylated
B2: fully glycosylated WT human angiotensinogen (AGT) (natural protein)
chain: DRVYIHPFHLVIHNESTCEQLAKANAGKPKDPTFIPAPIQAKTSPVDEKALQDQLVLVAAKLDTEDKLRAAMVGMLANFLGFRIYGMHSELWGVVHGATVLSPTAVFGTLASLYLGALDHTADRLQAILGVPWKDKNCTSRLDAHKVLSALQAVQGLLVAQGRADSQAQLLLSTVVGVFTAPGLHLKQPFVQGLALYTPVVLPRSLDFTELDVAAEKIDRFMQAVTGWKTGCSLMGASVDSTLAFNTYVHFQGKMKGFSLLAEPQEFWVDNSTSVSVPMLSGMGTFQHWSDIQDNFSVTQVPFTESACLLLIQPHYASDLDKVEGLTFQQNSLNWMKKLSPRTIHLTMPQLVLQGSYDLQDLLAQAELPAILHTELNLQKLSNDRIRVGEVLNSIFFELEADEREPTESTQQLNKPEVLEVTLNRPFLFAVYDQSATALHFLGRVANPLSTA
modifications: N-linked glycans (fully glycosylated; glycosylation sites Asn14, Asn137, Asn271, Asn295)

Assays:
[1] = biological target: T1, biotinylated renin D226A mutant; assay: BLI; as a1 (biotinylated renin D226A on streptavidin biosensors), but KD from steady-state analysis because on and off rates were very fast; conditions: both partners purified
[2] = biological target: T1, biotinylated renin D226A mutant; assay: BLI; FortéBio Octet Red96; biotinylated renin D226A (2.5 μg/ml) loaded on streptavidin biosensors; 2-fold dilutions of AGT in 10 mM Tris, pH 7.4, 0.15 M NaCl, 1% BSA; 1:1 binding model, global fit; KD = koff/kon; three independent assays; conditions: both partners purified

Binder | Kd [1] [µM] | Kd [2] [µM] | koff [2] [s⁻¹] | kon [2] [M⁻¹ s⁻¹]
B1 | 13 |  |  | 
B2 |  | 0.0203 | 0.000437 | 21500
